US9739779B2, “Methods of screening for Janus kinase 3 interacting compounds” (priority 2013, dated 2017)
Blank lines part the entries; values can stand above or below the molecule they belong to.

Columns and labels:
[1] = biological target: T1, P-Villin (Homo sapiens, UniProt P09327); assay: Multiplate ELISA binding of GST-Jak3 and truncated Jak3 fusion proteins to P-Villin
T1 construct: made in house; host or cells: E. coli TKX1 (pGEX2T vector)
T1 sequence (P09327 1-827): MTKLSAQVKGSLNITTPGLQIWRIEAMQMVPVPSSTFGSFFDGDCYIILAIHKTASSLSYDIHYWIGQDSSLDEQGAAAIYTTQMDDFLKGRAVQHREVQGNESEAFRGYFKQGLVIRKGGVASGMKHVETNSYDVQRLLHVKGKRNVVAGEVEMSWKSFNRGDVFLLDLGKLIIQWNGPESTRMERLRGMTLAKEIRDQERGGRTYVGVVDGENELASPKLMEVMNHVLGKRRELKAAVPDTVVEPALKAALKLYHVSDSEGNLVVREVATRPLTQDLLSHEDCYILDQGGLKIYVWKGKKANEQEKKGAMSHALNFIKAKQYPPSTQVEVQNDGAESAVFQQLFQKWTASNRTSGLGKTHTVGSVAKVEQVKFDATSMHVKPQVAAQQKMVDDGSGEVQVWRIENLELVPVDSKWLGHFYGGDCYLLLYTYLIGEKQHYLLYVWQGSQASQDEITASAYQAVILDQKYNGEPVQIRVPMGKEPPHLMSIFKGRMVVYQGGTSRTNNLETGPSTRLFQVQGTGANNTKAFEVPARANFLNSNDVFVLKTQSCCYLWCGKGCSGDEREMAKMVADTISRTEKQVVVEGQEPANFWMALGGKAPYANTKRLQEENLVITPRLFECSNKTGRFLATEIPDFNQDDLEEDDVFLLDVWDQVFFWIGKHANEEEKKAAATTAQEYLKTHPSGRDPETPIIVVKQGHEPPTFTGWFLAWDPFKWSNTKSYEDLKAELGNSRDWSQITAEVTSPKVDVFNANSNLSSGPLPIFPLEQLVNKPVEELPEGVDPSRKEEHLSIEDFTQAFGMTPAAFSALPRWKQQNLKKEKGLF
Experimental: Absorbance values for wells containing P-Villin contacted with GST alone were used as control, and data presented on the ordinate axis represent absorbance values after subtraction of control values.
(§1) To determine the ability of Jak3 to interact with natural compounds including biomolecules, binding studies were performed in a multiplate using the cytoskeletal protein, Villin, known in the art to be a substrate for P-Jak3. Multiplates pre-coated with P-Villin were contacted with increasing concentrations of GST-P-Jak3 fusion protein (test samples) or GST alone (control sample). Binding levels were measured using GST antibody as the primary binding partner, horse radish peroxidase conjugated antibody as the secondary binding partner and 3,3′,5,5′-tetramethylbenzidine as the colorimetric substrate. Raw absorbance data for the control samples were subtracted from the absorbance for the test samples to obtain the corrected absorbance values.
To determine whether the kinase domains of Jak3 are critical for Villin binding, recombinant GST-truncated-Jak3 fusion proteins shown in FIGS. 2C-2E were expressed in BL21 (for non-phosphorylated proteins) or TKX1 (for phosphorylated proteins) cells, and purified. Multiplates pre-coated with P-Villin were contacted with these GST-tagged recombinant truncated-Jak3 or with GST-tagged recombinant WT-Jak3, and binding measured as described supra.

[2] = biological target: T2, GST-P-Jak3 fusion protein (Mus musculus, UniProt Q62137); assay: Multiplate ELISA binding of P-Villin to GST-P-Jak3
T2 construct: made in house; host or cells: E. coli TKX1 (pGEX-4T vector)
Experimental: GST is the reporter protein and the primary binding partner is a GST antibody.
as §1

T2 sequence (Q62137 with tags, fused parts or gaps): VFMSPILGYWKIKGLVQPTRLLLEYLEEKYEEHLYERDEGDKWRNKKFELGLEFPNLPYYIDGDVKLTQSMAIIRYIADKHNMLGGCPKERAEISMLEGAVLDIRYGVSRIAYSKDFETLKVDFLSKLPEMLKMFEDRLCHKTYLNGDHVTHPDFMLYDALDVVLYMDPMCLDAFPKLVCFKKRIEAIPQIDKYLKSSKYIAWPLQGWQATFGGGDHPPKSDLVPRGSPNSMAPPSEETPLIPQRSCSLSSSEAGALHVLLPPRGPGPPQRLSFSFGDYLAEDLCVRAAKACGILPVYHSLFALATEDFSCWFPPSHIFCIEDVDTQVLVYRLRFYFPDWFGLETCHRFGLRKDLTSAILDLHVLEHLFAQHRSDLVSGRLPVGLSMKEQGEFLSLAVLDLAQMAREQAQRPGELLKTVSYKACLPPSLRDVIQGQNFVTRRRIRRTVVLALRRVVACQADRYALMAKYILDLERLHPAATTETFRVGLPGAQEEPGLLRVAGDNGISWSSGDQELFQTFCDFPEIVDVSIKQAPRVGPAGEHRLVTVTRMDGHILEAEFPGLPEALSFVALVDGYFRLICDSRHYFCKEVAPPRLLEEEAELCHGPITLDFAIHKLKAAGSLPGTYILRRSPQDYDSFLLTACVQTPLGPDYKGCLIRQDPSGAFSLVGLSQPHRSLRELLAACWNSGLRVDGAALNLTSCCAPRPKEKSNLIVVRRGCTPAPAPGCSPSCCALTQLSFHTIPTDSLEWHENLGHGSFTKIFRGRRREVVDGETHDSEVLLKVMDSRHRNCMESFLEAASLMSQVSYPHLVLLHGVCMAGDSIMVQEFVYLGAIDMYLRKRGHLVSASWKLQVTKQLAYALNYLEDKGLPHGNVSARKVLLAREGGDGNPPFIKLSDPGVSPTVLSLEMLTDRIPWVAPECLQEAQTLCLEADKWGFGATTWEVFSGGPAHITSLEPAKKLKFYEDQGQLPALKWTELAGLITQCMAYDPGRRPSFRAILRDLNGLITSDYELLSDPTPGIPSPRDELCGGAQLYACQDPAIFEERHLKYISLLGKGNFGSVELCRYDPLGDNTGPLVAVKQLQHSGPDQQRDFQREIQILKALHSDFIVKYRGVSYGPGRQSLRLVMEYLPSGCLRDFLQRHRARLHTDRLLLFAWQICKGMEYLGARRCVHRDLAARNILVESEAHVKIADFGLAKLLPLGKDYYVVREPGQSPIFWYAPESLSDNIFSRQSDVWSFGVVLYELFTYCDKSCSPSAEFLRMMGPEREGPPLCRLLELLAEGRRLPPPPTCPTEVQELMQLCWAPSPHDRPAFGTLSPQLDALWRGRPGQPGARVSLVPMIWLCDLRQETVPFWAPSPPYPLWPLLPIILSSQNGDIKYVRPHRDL

Kd ([1]; plates pre-coated with P-Villin, read-out: dissociation constant (Kd)): 23 nM
Molecule: P-WT-Jak3: phosphorylated GST-WT-Jak3 fusion protein (SEQ ID NO: 11) expressed in TKX1

level of binding to P-Villin ([1]; FIG. 8A, GST-alone control subtracted): relatively lower level of binding
Molecule: WT-Jak3: non-phosphorylated GST-WT-Jak3 fusion protein (SEQ ID NO. 7) expressed in BL21

Kd ([2]; plates pre-coated with P-Villin, P-Jak3 0-400 nM, GST control subtracted, read-out: dissociation constant (Kd)): 23 nM
Hill coefficient (h) ([2]; rearranged Hill equation plot): 3.7
B1: P-Villin: recombinant phosphorylated cytoskeletal protein Villin expressed in E. coli TKX1 (protein)
chain: T1 sequence (P09327 1-827)
